Data published in patent US20180185504A1 (Regeneron, published 2018).

T1: human PRLR on cells (endogenous on T47D, T47D#11, MCF7); introduced in HEK293/hPRLR/STAT5-Luc, 293/hPRLR, … (human, UniProt P16471 25-622)
T1 construct: no tag is stated for these lines; also called prolactin receptor
T1 sequence: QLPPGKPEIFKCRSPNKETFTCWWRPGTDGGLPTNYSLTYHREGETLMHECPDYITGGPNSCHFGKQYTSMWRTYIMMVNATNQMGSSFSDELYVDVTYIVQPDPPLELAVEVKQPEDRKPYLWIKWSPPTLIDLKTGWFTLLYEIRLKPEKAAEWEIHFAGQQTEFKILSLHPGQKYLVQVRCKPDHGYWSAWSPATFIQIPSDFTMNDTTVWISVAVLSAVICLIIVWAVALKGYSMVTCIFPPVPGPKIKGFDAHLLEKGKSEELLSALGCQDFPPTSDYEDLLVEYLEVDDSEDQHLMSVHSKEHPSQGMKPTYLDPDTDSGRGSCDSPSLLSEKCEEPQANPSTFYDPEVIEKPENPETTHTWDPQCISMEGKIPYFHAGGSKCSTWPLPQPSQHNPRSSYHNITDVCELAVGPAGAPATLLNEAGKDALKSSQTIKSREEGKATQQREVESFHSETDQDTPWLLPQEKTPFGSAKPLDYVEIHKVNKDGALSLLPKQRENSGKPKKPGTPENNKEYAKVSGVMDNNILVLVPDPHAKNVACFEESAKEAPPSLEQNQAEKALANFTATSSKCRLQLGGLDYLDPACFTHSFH

T2: monkey macaca fascicularis PRLR construct with an HA tag on HEK293/mfPRLR cells (macaca fascicularis, UniProt A0A2K5WXK1 25-619)
T2 construct: stably transfected into HEK293
T2 sequence: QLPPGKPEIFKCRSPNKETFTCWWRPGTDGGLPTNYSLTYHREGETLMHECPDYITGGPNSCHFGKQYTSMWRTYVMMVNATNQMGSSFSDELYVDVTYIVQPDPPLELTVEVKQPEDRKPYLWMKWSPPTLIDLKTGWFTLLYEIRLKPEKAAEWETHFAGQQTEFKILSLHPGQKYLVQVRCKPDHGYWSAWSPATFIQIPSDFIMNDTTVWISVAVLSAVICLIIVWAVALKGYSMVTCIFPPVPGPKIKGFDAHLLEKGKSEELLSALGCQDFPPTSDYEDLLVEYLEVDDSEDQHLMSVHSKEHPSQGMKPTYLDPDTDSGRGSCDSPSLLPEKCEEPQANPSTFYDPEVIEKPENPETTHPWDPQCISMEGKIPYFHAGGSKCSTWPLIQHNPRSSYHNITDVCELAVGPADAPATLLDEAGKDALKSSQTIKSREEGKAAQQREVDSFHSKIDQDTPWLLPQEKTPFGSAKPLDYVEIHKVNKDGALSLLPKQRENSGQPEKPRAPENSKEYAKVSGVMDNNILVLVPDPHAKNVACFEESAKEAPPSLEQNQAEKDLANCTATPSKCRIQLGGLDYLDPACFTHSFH

T3: hPRLR.mmh (soluble monomeric human PRLR) (human)
T3 construct: soluble monomeric PRLR protein
T3 chain: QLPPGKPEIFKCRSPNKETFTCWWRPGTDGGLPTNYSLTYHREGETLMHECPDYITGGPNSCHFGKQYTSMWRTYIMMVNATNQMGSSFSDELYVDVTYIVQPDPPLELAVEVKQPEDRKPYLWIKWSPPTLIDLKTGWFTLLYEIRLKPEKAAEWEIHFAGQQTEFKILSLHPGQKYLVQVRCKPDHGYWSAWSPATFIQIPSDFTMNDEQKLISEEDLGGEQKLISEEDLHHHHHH

T4: hPRLR.mFc (soluble dimeric human PRLR) (human)
T4 construct: dimeric PRLR construct
T4 chain: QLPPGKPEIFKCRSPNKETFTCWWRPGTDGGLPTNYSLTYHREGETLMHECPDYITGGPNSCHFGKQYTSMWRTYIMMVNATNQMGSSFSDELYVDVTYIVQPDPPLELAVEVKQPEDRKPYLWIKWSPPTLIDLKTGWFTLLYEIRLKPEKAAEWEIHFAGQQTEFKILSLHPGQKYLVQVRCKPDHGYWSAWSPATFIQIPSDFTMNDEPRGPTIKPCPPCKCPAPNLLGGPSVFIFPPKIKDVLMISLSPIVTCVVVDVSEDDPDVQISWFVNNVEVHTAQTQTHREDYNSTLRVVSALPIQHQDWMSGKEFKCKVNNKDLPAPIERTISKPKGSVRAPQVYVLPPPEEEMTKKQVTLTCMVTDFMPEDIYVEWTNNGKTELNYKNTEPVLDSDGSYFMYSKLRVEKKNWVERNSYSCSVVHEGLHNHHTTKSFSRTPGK

B1: H1H6792P (antibody, human IgG1, V domains shown)
VH: EVQLVESGGGLVQPGRSLRLSCAASGFTLDDHAVHWVRQAPGKGLEWVSGISWNSVYIDYADSVKGRFTIFRDNAKNSLYLQMNSLRAEDTAFYYCARDIEGARDYWGQGTLVTVSS
VL: DIQMTQSPSSLSASVGDRVTITCRASQGIRNDLGWYQQKPGKAPKRLIYAASSLQSGVPSRFSGSGYGTEFTLTISSLQPEDFAPYYCLQHNSYPLTFGGGTKVEIK
notes: human IgG1 Fc (H1H)
B2: H1H6790P (antibody, human IgG1, V domains shown)
VH: EVQLVESGGGLVQPGGSLRLSCAASGFTFSSYAMTWVRQAPGKGLEWVSAITGSVGNTYYADSVKGRFTISRDNSKNTLYLQMNSLGAEDTAEYYCAKGAGMTTNWYLDLWGRGTLVTVSS
VL: DIVMTQSPDSLAVSLGARATINCKSSQSVLYSSNNQNYLTWYQQKPGQPPKLLIKWASTRESGVPDRFSGSGSGTDFTLTISSLQAEDVAVYYCQQYASSPYTFGQGTKLEIK
notes: human IgG1 Fc (H1H)
B3: H1H6953N (antibody, human IgG1, V domains shown)
VH: EVQLLESGGGLVQPGGTLRLSCAASGFTFSAYAMSWVRQAPGKGLEWVSSINVRAGDTYYADSVKGRFTISRDNSKNTLFLLMNSLRAEDTAAYYCAKARYSSNWGFDFWGQGTLVTVSS
VL: DIVMTQSPDSLTVSLGARTTINCQSSQTILHSSNNHNYLAWYQQKPGLPPKLLIYWSSTRESGVPDRFSGSGSGTDFTLTISSLQAEDVAIYYCQQYSNTPYTFGQGTKLEIN
notes: also called H1M6953N
B4: H1H6807P (antibody, V domains shown)
VH: QVQLVESGGGVVQPGRSLRLSCAASGFTFSDYNMHWVRQAPGKGLEWVAVIWYDGSNKHYADSVKGRFTISRDNSKNTLYLQMNSLRAEDTAVYYCARDGFTIFGMVLDYWGQGTLVTVSS
VL: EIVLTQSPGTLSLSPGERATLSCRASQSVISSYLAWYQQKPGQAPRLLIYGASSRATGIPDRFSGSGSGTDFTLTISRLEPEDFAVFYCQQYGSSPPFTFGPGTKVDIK
notes: human IgG1 Fc (H1H)
B5: H1H6774P (antibody, human IgG1, V domains shown)
VH: EVQLVESGGGLAQPGGSLRLSCVASGFTFSTYWMSWVRQAPGKGLDWVGNIKQDGSEQNYVDSVRGRFTISRDNAKNSLFLQMNSLRAEDTGVYYCATLLTKGDYWGQGTLVTVSS
VL: DIQMTQSPSSLSASVGDSVTITCRASQDISNYLDWFQQKPGKAPKSLIYAASILQGGVPSRFSGSGYGTDFTLTISSLQPEDFATYYCRQYKTYPFTFGPGTKVDIK
notes: human IgG1 Fc (H1H)
B6: H1H6795P (antibody, human IgG1, V domains shown)
VH: QVQLVQSGAEVKKPGASVKVSCKASGYTFGTSGITWVRQAPGQGLEWMGWSSAYNGKTDYAQKFQDRVTMTTDTSTTTGYMEMRSLTSDDTAVYYCTTVVRRPFDFWGQGTLVTVSS
VL: DIQMTQSPSSLSASVGDRVTITCRASQDINNFLAWFQQKPGKAPKSLIYAASSLQSGVPSKFSGGGSGTDFALTISSLQPEDFATYYCQQYSSYPITFGQGTRLEIK
notes: human IgG1 Fc (H1H)
B7: H1H6783P (antibody, human IgG1, V domains shown)
VH: QVQLQQSGPGLVKPSQTLSLTCAISGDSVSSNTFAWNWIRQSPSRGLEWLGRTYYRSKWYIDYAESVKSRITITPDTSKNQFSLQLNSVTPEDTALYYCAGGYTYAPRGAFDIWGQGTMVTVSS
VL: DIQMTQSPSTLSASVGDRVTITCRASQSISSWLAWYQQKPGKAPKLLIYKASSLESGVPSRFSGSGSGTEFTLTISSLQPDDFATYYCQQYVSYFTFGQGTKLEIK
notes: human IgG1 Fc (H1H)

Molecular target: T1, human PRLR on cells (endogenous on …)
Assay: FACS on T47D cells

Row | Binder | FACS Cell Binding (Fold Above Background)
1 | B1 | 37 fold
2 | B2 | 34 fold
3 | B3 | 40 fold
4 | B4 | 34 fold
5 | B5 | 39 fold
6 | B6 | 34 fold
7 | B7 | 38 fold

Molecular target: T1, human PRLR on cells (endogenous on …)
Assay: cell-based or functional assay

Row | Binder | % Internalization relative to Control I (T47D cells, imaging)
8 | B1 | 156%
9 | B2 | 147%
10 | B3 | 154%
11 | B4 | 147%
12 | B5 | 162%
13 | B6 | 151%
14 | B7 | 161%

Molecular target: T1, human PRLR on cells (endogenous on …)
Assay: cell-based or functional assay
Remark: another data set of the same source

Row | Binder | IC50 of Blocking 5 nM PRL [M] (STAT5-Luc reporter, HEK293/hPRLR/STAT5-Luc cells) | Percent Blocking at 100 nM Antibody (STAT5-Luc reporter)
15 | B1 | 5.7e-10 M | 100%
16 | B2 | 2.06e-10 M | 100%
17 | B3 | 1.05e-10 M | 100%
18 | B4 | 6e-10 M | 100%
19 | B5 | – | 0%
20 | B6 | – | 0%
21 | B7 | – | 59%

Molecular target: T2, monkey macaca fascicularis PRLR …
Assay: FACS on HEK293/mfPRLR cells

Row | Binder | FACS Cell Binding (Fold Above Background)
22 | B1 | 28 fold
23 | B2 | 24 fold
24 | B3 | 29 fold
25 | B4 | 27 fold
26 | B5 | 29 fold
27 | B6 | 22 fold
28 | B7 | 27 fold

Molecular target: T3, hPRLR.mmh (soluble monomeric human PRLR)
Assay: SPR (Biacore), antibody capture, 37 C
Method: (§1) Measurements were conducted on a T200 Biacore instrument. Kinetic association (kₐ) and dissociation (kd) rate constants were determined by processing and fitting the data to a 1:1 binding model using Scrubber 2.0 curve fitting software.

Row | Binder | Kd | T 1/2 | koff | kon
29 | B1 | 5.27 nM | 5 min | 0.00229 s⁻¹ | 435000 M⁻¹ s⁻¹
30 | B2 | 3.5 nM | 4 min | 0.00329 s⁻¹ | 940000 M⁻¹ s⁻¹
31 | B3 | 1.11 nM | 9.4 min | 0.00122 s⁻¹ | 1.1e+06 M⁻¹ s⁻¹
32 | B4 | 0.31 nM | 34 min | 0.000336 s⁻¹ | 1.08e+06 M⁻¹ s⁻¹
33 | B5 | 2.95 nM | 4 min | 0.00317 s⁻¹ | 1.07e+06 M⁻¹ s⁻¹
34 | B6 | 3.81 nM | 2 min | 0.0052 s⁻¹ | 1.36e+06 M⁻¹ s⁻¹
35 | B7 | 3.91 nM | 7 min | 0.00161 s⁻¹ | 411000 M⁻¹ s⁻¹

Molecular target: T4, hPRLR.mFc (soluble dimeric human PRLR)
Assay: SPR (Biacore), antibody capture, 37 C
Method: as §1

Row | Binder | Kd | T 1/2 | koff | kon
36 | B1 | 0.352 nM | 66 min | 0.000176 s⁻¹ | 499000 M⁻¹ s⁻¹
37 | B2 | 0.306 nM | 58 min | 0.000198 s⁻¹ | 646000 M⁻¹ s⁻¹
38 | B3 | 0.116 nM | 68 min | 0.00017 s⁻¹ | 1.47e+06 M⁻¹ s⁻¹
39 | B4 | 0.09 nM | 105 min | 0.00011 s⁻¹ | 1.22e+06 M⁻¹ s⁻¹
40 | B5 | 0.138 nM | 60 min | 0.000194 s⁻¹ | 1.41e+06 M⁻¹ s⁻¹
41 | B6 | 0.0402 nM | 149 min | 7.77e-05 s⁻¹ | 1.94e+06 M⁻¹ s⁻¹
42 | B7 | 0.282 nM | 83 min | 0.000138 s⁻¹ | 491000 M⁻¹ s⁻¹

Molecular target: T1, human PRLR on cells (endogenous on …)
Assay: imaging of alexa488 intensity on T47D cells
Procedure, shortened: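 T47D cells labelled on ice with alexa488 anti-hFc Fab secondary for 30 min, then held 1 h at 37 °C in PBS+2% FBS or at 4 °C. After fixation and DRAQ5 staining, whole-cell (binding) and intracellular-vesicle (internalization) alexa488 intensities at 37 °C quantified by imaging.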

Row | Binder | % Total Binding relative to Control I
43 | B1 | 111%
44 | B2 | 123%
45 | B3 | 164%
46 | B4 | 153%
47 | B5 | 174%
48 | B6 | 123%
49 | B7 | 166%
